Source: patent EP4682164A1 (Curogen Technology Co., Ltd., dated 2026)

T1: human IL-17F (IL-17FF homodimer) (human, UniProt Q96PD4 31-163)
T1 sequence (looked up): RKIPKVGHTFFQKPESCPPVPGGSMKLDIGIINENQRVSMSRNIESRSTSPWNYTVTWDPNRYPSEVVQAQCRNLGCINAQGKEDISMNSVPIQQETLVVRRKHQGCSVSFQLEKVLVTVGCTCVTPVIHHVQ


Experiments:
[1] = target: T1, human IL-17F (IL-17FF homodimer); assay: cell-based or functional assay
[2] = target: T2, human IL-17A (IL-17AA homodimer) (human, UniProt Q16552 20-155, limits assumed); assay: cell-based or functional assay
T2 sequence (Q16552 20-155 limits assumed): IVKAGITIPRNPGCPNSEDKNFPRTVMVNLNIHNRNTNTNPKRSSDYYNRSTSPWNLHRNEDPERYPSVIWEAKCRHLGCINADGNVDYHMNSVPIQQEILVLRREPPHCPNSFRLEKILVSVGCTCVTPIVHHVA

human TNFα [3] = target: T3, human TNFα (human, UniProt P01375 77-233); assay: ELISA, cytokine coated on plate, binder titrated, HRP secondary antibody
T3 construct: also called hTNFα
T3 sequence (P01375 77-233 limits assumed): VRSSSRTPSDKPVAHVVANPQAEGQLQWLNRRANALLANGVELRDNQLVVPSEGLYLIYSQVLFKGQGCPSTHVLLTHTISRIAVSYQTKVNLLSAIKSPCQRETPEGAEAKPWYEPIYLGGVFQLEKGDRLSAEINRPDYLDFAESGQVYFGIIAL

human TNFα [4] = target: T3, human TNFα; assay: cell-based or functional assay
[5] = target: T2, human IL-17A (IL-17AA homodimer); assay: ELISA, cytokine coated on plate, binder titrated, HRP secondary antibody

Row | Binder | IC50 (ng/mL) of hIL-17F, SEAP reporter assay in HEK-Blue IL-17 cells [1] [ng/mL] | IC50 (ng/mL) of hIL-17A, SEAP reporter assay in HEK-Blue IL-17 cells [2] [ng/mL] | EC50 (human TNFα [3]) [µg/mL] | IC50 (ng/mL) of hTNFα, SEAP reporter assay in HEK-Blue TNFα cells (human TNFα [4]) [ng/mL] | EC50 [5] [ng/mL]
1 | T1-T4-32 (Fc fusion, also called T1c-Fcb-T4g; IL-17RA/RC-Fc-TNFR2) LRLLDHRAPVCSQPGLNCTVKNSDCLDDSWIHPRNLTPSSPKDLQIQLHFAHTQQGDLVPVAHIEWTLQTDASILYLEGAELSVLQLDTNERLCVRFEFLSKLRHHHRRWRFTFSHFVVDPGQEYEVTVHHLPKPIPDGDPNHQSKNFLVPDCEHPRMKVTTPCMSSALPWLNVSADGDNVHLVLNVSEEQHFGLSLYWNQVQGPPKPRWHKNLTGPQIITLNHTDLVPCLCIQVWPLEPDSVRTNICPFREDPRAHQNLWQAARLRLLTLQSWLLDAPCSLPAEAALCWRAPGGDPCQPLVPPLSWENVTVDKVLEFPLLKGHPNLCVQVNSSEKLQLQECLWADSLGPLKDDVLLLETRGPQDNRSLCALEPSGCTSLPSKASTRAARLGEYLLQDLQSGQCLQLWDDDLGALWACPMDKYIHKTGIEGRMDRNTGRGGEEKKKEKEKEEQEERETKTPECPSHTQPLGVFLFPPKPKDTLMISRTPEVTCVVVDVSQEDPEVQFNWYVDGVEVHNAKTKPREEQFNSTYRVVSVLTVLHQDWLNGKEYKCKVSNKGLPSSIEKTISKAKGQPREPQVYTLPPSQEEMTKNQVSLTCLVKGFYPSDIAVEWESNGQPENNYKTTPPVLDSDGSFFLYSRLTVDKSRWQEGNVFSCSVMHEALKFHYTQKSLSLSLGKGGGGSGGGGSGGGGSLELPAQVAFTPYAPEPGSTCRLREYYDQTAQMCCAKCPPGQHAKVFCTKTSDTVCDSCEDSTYTQLWNWVPECLSCSSRCSSDQVETQACTREQNRICTCRPGWYCALSKQEGCRLCAPLSKCRPGFGVARPGTETSDVVCKPCAPGTFSNTTSSTDICRPHQICSVVAIPGNASMDAVCTSTSPTRSMAPGAVHLPQPVSTRSQHTQPTPGPSTAPSTSILLPMGPSPPAEGSTGD | 1260 | 20.5 | 0.0406 | – | –
2 | T1-T4-30 (Fc fusion) LRLLDHRAPVCSQPGLNCTVKNSDCLDDSWIHPRNLTPSSPKDLQIQLHFAHTQQGDLVPVAHIEWTLQTDASILYLEGAELSVLQLDTNERLCVRFEFLSKLRHHHRRWRFTFSHFVVDPGQEYEVTVHHLPKPIPDGDPNHQSKNFLVPDCEHPRMKVTTPCMSSALPWLNVSADGDNVHLVLNVSEEQHFGLSLYWNQVQGPPKPRWHKNLTGPQIITLNHTDLVPCLCIQVWPLEPDSVRTNICPFREDPRAHQNLWQAARLRLLTLQSWLLDAPCSLPAEAALCWRAPGGDPCQPLVPPLSWENVTVDKVLEFPLLKGHPNLCVQVNSSEKLQLQECLWADSLGPLKDDVLLLETRGPQDNRSLCALEPSGCTSLPSKASTRAARLGEYLLQDLQSGQCLQLWDDDLGALWACPMDKYIHKTGIEGRMDRNTGRGGEEKKKEKEKEEQEERETKTPECPSHTQPLGVFLFPPKPKDTLMISRTPEVTCVVVDVSQEDPEVQFNWYVDGVEVHNAKTKPREEQFNSTYRVVSVLTVLHQDWLNGKEYKCKVSNKGLPSSIEKTISKAKGQPREPQVYTLPPSQEEMTKNQVSLTCLVKGFYPSDIAVEWESNGQPENNYKTTPPVLDSDGSFFLYSRLTVDKSRWQEGNVFSCSVMHEALHNHYTQKSLSLSLGKGGGGSGGGGSGGGGSLELPAQVAFTPYAPEPGSTCRLREYYDQTAQMCCSKCSPGQHAKVFCTKTSDTVCDSCEDSTYTQLWNWVPECLSCSSRCSSDQVETQACTREQNRICTCRPGWYCALSKQEGCRLCAPLRKCRPGFGVARPGTETSDVVCKPCAPGTFSNTTSSTDICRPHQICNVVAIPGNASMDAVCTSTSPTRSMAPGAVHLPQPVSTRSQHTQPTPEPSTAPSTSFLLPMGPSPPAEGSTGD | 1030 | 23.7 | – | – | –
3 | T1-T4-13 (Fc fusion, also called T1c-Fc-T4f; IL-17RA/RC-Fc-TNFR2) LRLLDHRAPVCSQPGLNCTVKNSDCLDDSWIHPRNLTPSSPKDLQIQLHFAHTQQGDLVPVAHIEWTLQTDASILYLEGAELSVLQLDTNERLCVRFEFLSKLRHHHRRWRFTFSHFVVDPGQEYEVTVHHLPKPIPDGDPNHQSKNFLVPDCEHPRMKVTTPCMSSALPWLNVSADGDNVHLVLNVSEEQHFGLSLYWNQVQGPPKPRWHKNLTGPQIITLNHTDLVPCLCIQVWPLEPDSVRTNICPFREDPRAHQNLWQAARLRLLTLQSWLLDAPCSLPAEAALCWRAPGGDPCQPLVPPLSWENVTVDKVLEFPLLKGHPNLCVQVNSSEKLQLQECLWADSLGPLKDDVLLLETRGPQDNRSLCALEPSGCTSLPSKASTRAARLGEYLLQDLQSGQCLQLWDDDLGALWACPMDKYIHKTGIEGRMDRNTGRGGEEKKKEKEKEEQEERETKTPECPSHTQPLGVFLFPPKPKDTLMISRTPEVTCVVVDVSQEDPEVQFNWYVDGVEVHNAKTKPREEQFNSTYRVVSVLTVLHQDWLNGKEYKCKVSNKGLPSSIEKTISKAKGQPREPQVYTLPPSQEEMTKNQVSLTCLVKGFYPSDIAVEWESNGQPENNYKTTPPVLDSDGSFFLYSRLTVDKSRWQEGNVFSCSVMHEALHNHYTQKSLSLSLGKGGGGSGGGGSGGGGSLELPAQVAFTPYAPEPGSTCRLREYYDQTAQMCCAKCPPGQHAKVFCTKTSDTVCDSCEDSTYTQLWNWVPECLSCGSRCSSDQVETQACTREQNRICTCRPGWYCALSKQEGCRLCAPLSKCRPGFGVARPGTETSDVVCKPCAPGTFSNTTSSTDICRPHQICSVVAIPGNASMDAVCTSTSPTRSMAPGAVHLPQPVSTRSQHTQPTPGPSTAPSTSILLPMGPSPPAEGSTGD | – | 26.9 | – | 138 | 9.2
4 | T1-T4-12 (Fc fusion, also called T1c-Fc-T4e; IL-17RA/RC-Fc-TNFR2) LRLLDHRAPVCSQPGLNCTVKNSDCLDDSWIHPRNLTPSSPKDLQIQLHFAHTQQGDLVPVAHIEWTLQTDASILYLEGAELSVLQLDTNERLCVRFEFLSKLRHHHRRWRFTFSHFVVDPGQEYEVTVHHLPKPIPDGDPNHQSKNFLVPDCEHPRMKVTTPCMSSALPWLNVSADGDNVHLVLNVSEEQHFGLSLYWNQVQGPPKPRWHKNLTGPQIITLNHTDLVPCLCIQVWPLEPDSVRTNICPFREDPRAHQNLWQAARLRLLTLQSWLLDAPCSLPAEAALCWRAPGGDPCQPLVPPLSWENVTVDKVLEFPLLKGHPNLCVQVNSSEKLQLQECLWADSLGPLKDDVLLLETRGPQDNRSLCALEPSGCTSLPSKASTRAARLGEYLLQDLQSGQCLQLWDDDLGALWACPMDKYIHKTGIEGRMDRNTGRGGEEKKKEKEKEEQEERETKTPECPSHTQPLGVFLFPPKPKDTLMISRTPEVTCVVVDVSQEDPEVQFNWYVDGVEVHNAKTKPREEQFNSTYRVVSVLTVLHQDWLNGKEYKCKVSNKGLPSSIEKTISKAKGQPREPQVYTLPPSQEEMTKNQVSLTCLVKGFYPSDIAVEWESNGQPENNYKTTPPVLDSDGSFFLYSRLTVDKSRWQEGNVFSCSVMHEALHNHYTQKSLSLSLGKGGGGSGGGGSGGGGSLELPAQVAFTPYAPEPGSTCRLREYYDQTAQMCCAKCPPGQHAKVFCTKTSDTVCDSCEDSTYTQLWNWVPECLSCGSRCSSDQVETQACTREQNRICTCRPGWYCALSKQEGCRLCAPLSKCRPGFGVARPGTETSDVVCKPCAPGTFSNTTSSTDICRPHQICSVVAIPGNASMDAVCTSTSPTRSMAPGAVHLPQPVSTRSQHTQPTPGPSTAPSTSFLLPMGPSPPAEGSTGD | – | 19.9 | – | 116 | 8.41
